From patent US20170146535A1 (SPRING BIOSCIENCE, published 2017)

Each binder was assayed against human indoleamine 2,3-dioxygenase 1 (IDO1) (human, UniProt P14902 1-403) (assay: IHC on FFPE HeLa cells (untreated or IFN-gamma treated) and FFPE human tissues).
Description: The anti-IDO1 antibodies generated in Example 1 were used in further IHC analyses. For IHC analyses, tissue sections were incubated with the antibodies for 16 min followed by standard washes and secondary detection with Optiview DAB IHC Detection Kit (Ventana Medical System, Inc., Tucson, Ariz.). The specificity of each antibody was assessed on formalin-fixed, paraffin-embedded (FFPE) cells with different IDO1 expression levels (human cervical cancer HeLa cells that are either untreated as control (negative) or treated with interferon-γ (high expression); see FIGS. 2A-2b) or from different tissue types (Tonsil, Thymus, Colon, Endometrial adenocarcinoma, Ovarian adenocarcinoma, Pancreatic adenocarcinoma, and Stomach adenocarcinoma; see FIGS. 3A-3G).

Sequence of human indoleamine 2,3-dioxygenase 1 (IDO1) (P14902 whole entry): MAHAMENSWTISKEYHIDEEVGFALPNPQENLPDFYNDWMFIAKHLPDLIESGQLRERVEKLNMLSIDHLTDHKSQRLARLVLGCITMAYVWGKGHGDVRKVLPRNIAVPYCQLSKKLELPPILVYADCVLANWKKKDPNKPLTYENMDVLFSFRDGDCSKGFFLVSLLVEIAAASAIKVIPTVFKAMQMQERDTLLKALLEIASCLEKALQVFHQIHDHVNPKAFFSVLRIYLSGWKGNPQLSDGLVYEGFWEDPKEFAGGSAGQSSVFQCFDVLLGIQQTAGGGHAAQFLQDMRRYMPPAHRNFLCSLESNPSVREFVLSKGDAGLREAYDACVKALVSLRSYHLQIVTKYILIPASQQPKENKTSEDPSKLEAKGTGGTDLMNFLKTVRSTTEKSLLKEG

Row | Binder | binding result
1 | J6H15L16 antibody (antibody, V domains shown, the constant regions are not) VH: QEQLVESGGGLVQPEGSLTLTCTASGFSFSTNYWICWVRQAPGKGLEWTACIYIGGRGSIYYASWAKGRFTISKTSSTTVTLQMTSLTAADTATYFCARDLTTAYGATDLRFWGPGTLVTVSS VL: DVVMTQTPSPVSAAVGGTVSISCQSSQSVGDNNRLSWFQQKPGQPPKLLIYSASTLASGVPSRFKGSGSGTEYTLTISGVQCDDAATYYCLGEFSGSDEDVFGGGTEVVVK | binds
2 | anti-IDO1 antibody SP260 (antibody, V domains shown, the constant regions are not) VH: QEQLVESGGGLVQPEGSLTLTCTASGFSFSTNYWICWVRQAPGKGLEWTACIYVGGRGSIYYASWAKGRFTISKTSSTTVTLQMTSLTAADTATYFCARDLTTAYGATDLRFWGPGTLVTVSS VL: DVVMTQTPSPVSAAVGGTVSISCQSSQSVGDNNRLSWFQQKPGQPPKLLIYSASTLASGVPSRFKGSGSGTEYTLTISGVQCDDAATYYCLGEFSGSDEDVFGGGTEVVVK | binds
3 | J6H20L16 antibody (antibody, V domains shown, the constant regions are not) VH: QEQLVESGGGLVQPEGSLTLTCTASGFSFSTNYWICWVRQAPGKGLEWTACIYIGGRGSIYYASWAKGRFTISKTSSTTVTLQMTSLTAADTATYSCARDLTTAYGATDLRFWGPGTLVTVSS VL: DVVMTQTPSPVSAAVGGTVSISCQSSQSVGDNNRLSWFQQKPGQPPKLLIYSASTLASGVPSRFKGSGSGTEYTLTISGVQCDDAATYYCLGEFSGSDEDVFGGGTEVVVK | binds
4 | J6H12L16 antibody (antibody, V domains shown, the constant regions are not) VH: QEQLVESGGGLVRPEGSLTLTCTASGFSFSTNYWICWVRQAPGKGLEWTACIYIGGRGSIYYASWAKGRFTISKTSSTTVTLQMTSLTAADTATYFCARDLTTAYGATDLRFWGPGTLVTVSS VL: DVVMTQTPSPVSAAVGGTVSISCQSSQSVGDNNRLSWFQQKPGQPPKLLIYSASTLASGVPSRFKGSGSGTEYTLTISGVQCDDAATYYCLGEFSGSDEDVFGGGTEVVVK | binds
